For 2 molecules, Kd results are on record in PMC6365180 (Structure (London, England : 1993), 2018).

The target of the experiment is TATA box-binding protein (TBP) (UniProt P20226 1-339). Put plainly: SPR. On the technique in general: SPR reads the build-up and loss of mass on a sensor chip optically.
TATA box-binding protein (TBP), sequence (P20226 whole entry): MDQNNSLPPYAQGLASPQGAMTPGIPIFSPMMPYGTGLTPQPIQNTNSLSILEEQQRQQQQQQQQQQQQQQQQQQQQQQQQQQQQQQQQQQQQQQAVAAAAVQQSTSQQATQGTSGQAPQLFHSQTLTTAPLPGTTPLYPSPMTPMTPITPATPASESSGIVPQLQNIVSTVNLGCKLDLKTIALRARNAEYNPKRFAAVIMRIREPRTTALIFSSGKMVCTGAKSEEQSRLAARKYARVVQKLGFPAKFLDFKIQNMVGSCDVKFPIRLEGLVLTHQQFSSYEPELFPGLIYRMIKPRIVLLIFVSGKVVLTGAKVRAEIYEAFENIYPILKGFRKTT

B1: N-terminal transactivation domain (NTD) of human estrogen receptor alpha, wild type (SNA-M1-Y184) (domain or fragment)
chain: SNAMTMTLHTKASGMALLHQIQGNELEPLNRPQLKIPLERPLGEVYLDSSKPAVYNYPEGAAYEFNAAAAANAQVYGQTGLPYGPGSEAAAFGSNGLGGFPPLNSVSPSPLMLLHPPPQLSPFLQPHGQQVPYYLENEPSGYTVREAGPPAFYRPNSDNRRQGGRERLASTNDKGSMAMESAKETRY
Consider B1, for which binding was put at a Kd of 53 ± 12 µM.

B2: N-terminal transactivation domain (NTD) of human estrogen receptor alpha, S118D mutant (domain or fragment)
chain: SNAMTMTLHTKASGMALLHQIQGNELEPLNRPQLKIPLERPLGEVYLDSSKPAVYNYPEGAAYEFNAAAAANAQVYGQTGLPYGPGSEAAAFGSNGLGGFPPLNSVSPSPLMLLHPPPQLDPFLQPHGQQVPYYLENEPSGYTVREAGPPAFYRPNSDNRRQGGRERLASTNDKGSMAMESAKETRY
In the case of B2, the Kd (usually the concentration at which binding is half-saturated) is 3.9 ± 0.4 µM.
